What was measured:
[1] = molecular target: recombinant human EPCR (extracellular domain Met1-Thr209, C-terminal poly-histidine tag) (human) (UniProt Q9UNN8); assay: SPR
EPCR (Homo sapiens) = EPCR (Homo sapiens) (UniProt Q9UNN8); settings: cited from earlier work
Sequence of EPCR (Homo sapiens) (Q9UNN8 18-210): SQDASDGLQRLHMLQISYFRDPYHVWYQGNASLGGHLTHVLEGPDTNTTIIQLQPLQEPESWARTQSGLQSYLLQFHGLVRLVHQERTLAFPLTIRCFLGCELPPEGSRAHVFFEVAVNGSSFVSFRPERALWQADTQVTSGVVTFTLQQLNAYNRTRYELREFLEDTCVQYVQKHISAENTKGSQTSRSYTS

Sequence of recombinant human EPCR (extracellular domain Met1-Thr209, C-terminal poly-histidine tag) (human) (Q9UNN8 18-209): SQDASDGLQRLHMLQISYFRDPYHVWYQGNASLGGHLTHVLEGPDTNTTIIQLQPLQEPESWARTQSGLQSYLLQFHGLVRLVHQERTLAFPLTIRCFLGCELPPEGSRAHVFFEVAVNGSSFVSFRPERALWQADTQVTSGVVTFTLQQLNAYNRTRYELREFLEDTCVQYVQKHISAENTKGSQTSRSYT

recombinant full-length DC8-containing PfEMP1 IT4VAR20 (natural protein)
Kd [1]: 10 nM

activated protein C (commercial human purified APC) (from UniProt P04070 43-197) (enzyme)
Kd [1]: 1000 nM

Activated protein C (from UniProt P04070)
Kd (EPCR (Homo sapiens)): 32 nM

From article PMC3870021
